Reference: the nanobody polyreactivity screen of Harvey et al. (2022)

Assay: yeast display, Sf9 membrane polyspecificity reagent, FACS + sequencing; frameworks hold sequencing errors
Outline: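 Nanobodies came from a synthetic yeast display library in Saccharomyces cerevisiae BJ5465, induced with galactose for 36–48 hours and stained for 1 hour at 4 °C with 10% biotinylated, detergent-solubilized Sf9 membrane reagent. Cells were enriched on streptavidin microbeads and then FACS-sorted, with low and high (top ~1%) gates set on anti-HA fluorescence for expression and streptavidin fluorescence for reagent binding. Each polyreactivity label reflects the gate a clone came from. Genes were amplified by colony PCR, sequenced by MiSeq 2 × 250 and filtered by CDR length.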

| Sequence | polyreactivity (PSR sort gate) |
| --- | --- |
| QIQLVESGGGLVQAGGSLRLSCAASGFTFYYYVMGWYRQAPGKERELVAAISSRGGSTYYADSVKGRFTISRDNAKNTVYLQMNSLKPEDTAVYYCAATYWPYRPGYYYWGQGTQVTVSS | high polyreactivity |
| QVQLVESGGGLDQAGGSLRLSCAASGRTFSWYAMGWYRQAPGKERELVAAITYSGGNTYYAHSVKGRFTISRDNAKITVYLLRNSLKPDDNAVYYCAAPSLIAKYEYWGQGTQVTVSS | high polyreactivity |
| HVQLVESGGGLVQAGGSLRLICAASGRSFSPYAMGWYRLAPGKERELVAAITNGDSTNYADSVKGRFTISRDNAKNTVYLLMNSLKPEDTAVYYCNAAAEISSFDYDYWGQGTQVTVSS | low polyreactivity |
| QVQLVESGGGLVQAGGSLRLSCAASGRIFNYYAMGWYRQAPGKEREFVAAITSGGGSTYYADSVKGRFTISRDNAKNNVYLQMNSLKPEDTAVYYCNARLQSQVDAIGYGYWGQGTQVTVSS | high polyreactivity |
| QVQLVESGGGLVQAGGSLRLSCAASGRTFVYYTRGWYRPAPGKERELVAAISWNGDDTYYADSVKGRFTISRDNAKNTVYLQMNSLKPEDTAVYYCAKESYTDYDTYYYWGQGTQVTVSS | low polyreactivity |
| QVQLVESGGGLFQAGGSLRLSCAASGFTFYVYAMGWYRQAPGKERELVAAISSGGGSTYYADSVKGRFTISRDNAKNTVYLQMNSLKPEDTAVYYCNKLFPGTYDGAHGYWGQGTQVTVSS | low polyreactivity |
| QVQLVESGGGLVQAGGSLRLICAAAGFIFKRYAMGWYRQAPGKERELVAAITSNGGRTYYADSVKGRFTISRDNAKNTVYFQMNSLKPEDTEVYYCARVSQYYEQDDYWGQGTQVTVSS | high polyreactivity |
| QVQLVESGAGLVQAGGSLRLSCAASGSIFAWYGMGWYRQAPGQERELVAAISTAGSTNYADSVKGRFTISRDNAKNTVYLQMNSLKPEDTAVYYCAKISSWYYPERFDYWGQGTQVTVSS | low polyreactivity |
| QVQLVESGGGLVQAGGSLRLRCAASGSTCFLYAMGWYRQAPGKEMELVASISDGSSTNYADSVKGRFTISRDNAKNTVYLQMNSLKPEDTAVYYCDAARWYAHRVDYWGQGTQVTVSS | low polyreactivity |
| QVQLVESGGALVQAGGSLRLSCAASGSTFRYYAMGWYRQAPGKERELVAAIRWSGDSTYYADSVKGRFTISRDNAKNTVYLQMNSLKPEDTAVYYCAADRQRSHRVGTKGHRVGYWGQGTQVSVSS | high polyreactivity |
| QVQLVESGGGIVQAGGSLRLSCAASGYTISYYAMGCYRQAPGKERELVASISWRGGGTYYADSVKGRFTISRDNAKNTVYLQMNSLKAEDTAVYYCNIDYYATPYGYWGQGTQVTVSS | low polyreactivity |
| QVQLVESGGGLVQAGGSLRLSCAASGSIFPEYVMGWYRQAPGKERELVAAISWSGGSTYYADSVKGRFTISRDNAKNTVYLQMNSLKPEDTAVYYCNRVPSWRIDYDYWGQGTQVTVSS | low polyreactivity |
| QVQLVESGGGLVQAGGSLRLSCAASGRTFAKYAMGWYRQAPGKEREWVAAINSSGGSTYYADSVKGRFTISRDNAKNTVYLQMNSLKPEDTAVYYCAKEYYSYDVYLGVSYVGRYDYWGQGTQVTVSS | low polyreactivity |
| QVQLEESGARIVQAGGSLRLSCAASGITLAGYVMGWYRQAPGKERELVADISSSGDSTYYADSVNGRFTISRDNAKNTVYLQMNSLKPEDTAVYYCAAEEIIPLIYKGYPFDYWGQATQVTVSS | low polyreactivity |
| QVQLVESGGGLVQAGGSLRLSCAASGSIFDYYTMGCYRQAAGKERELVATIRSGDSTNYADSLKGRFTISRDIEMNRVYLQMNSLKPEDTAVYYCAAVDGAYPTLYDYWGQGTQVTVSS | low polyreactivity |
| QVQLVESGGGLVQAGGSLRLSCAASGYTFYRNAMGWYRQAPGKERELVASLRDDGSTYYADSEKGRFTISRDNAKNTVYLHMNSLKPEDTAVYYCNSDYPYIWHKGARYWHENDYWGQGTQVTVSS | low polyreactivity |
| QVQLVESRGGLVQAGGSLRLSCAASGSIFSFYAMGWYRQAPGKERELVATITSGGSTYYADSVKGRFSISRDNAKNTVYLQMNSLKPEDTAVYYCAARGNFGANPGRKHGFDYWGQGTQVTVSS | high polyreactivity |
| QVQLVESGGGLVQAGGSLRLSCAASGFIFSGNAMGWYRQAPGKERELVARIRSGDRTYYADSVKGRFTISRDNAKNTVYLQMNSLKPEDTAVYYCAAYAWYDWRSYFPILGYEYWGQGTQVTVSS | low polyreactivity |
| QVQLVESGGGLVQAGGSLRLSCAASGITFRQYAMGWYRQAPGKERELVAVITSRGGTTYYAVSVKGRFTISRDNAKNTVYLQMNSLKPEDTAVYYCAARYPSYDFYYWGQGTQVTVSS | high polyreactivity |
| QVQLVESGGGLVQAGGSLRLSCAASGSTFYIYAMGWYRQAPGKERELVARITRGGTTYADSVKGRFTISRDNAKNTVYLQMNSLKLEDTAVYYCNAASKTTRYYQAFYSGGGYWGQGTQVTVSS | high polyreactivity |
| QVQLVESGGGLVQAGGSLRLSCAASGSTFRHYAMGWYRQQPGKERELVAAISSRGGSTYYADSVKGRFTISRDNAKNTVYLQMNSLKPEDTAVYYCNVVGYLRPSYRHMDYWGQGTQVTVSS | high polyreactivity |
| QVQLVESGGGLVEAGGSLRLSCAASGRISQSNAMGWYRQAPGKESELVAAISWRGGSTYYADSVKGRFTISRDNAKNTVYLEMNSLKPEDTAVYYCGAKSWYAFYYRHPYDYWGQGTQVTVSS | high polyreactivity |

| Sequence | polyreactivity (PSR sort gate) |
| --- | --- |
| QVQHVESAGGLVQAGGSLRLSCAASGSIFWYAMGWYRQAPGKERELVDGISRGGSTYYADSVKGRFTISRDNAKNTVYLQMNSLKPEDTAVYYFNTAGYYGTPYNYWGQGTQVTVSS | low polyreactivity |
| QVQHVESGGGLVQAGGSLRLSCAASVIIFLWYAMGRYRQAPGKERELGAAISRSGSSTYYADSVKGRFTISRDNAKNTVYLQMNSLKPEDTAVYYCAAAYYSKRSCRFDYWGQGTQVTVSS | high polyreactivity |
| QVQLLESGGGLVQAGGSLRLSCAASGRIFGYYAMGWYRQAPGKERELVASISWSGGSTYYADSVKGRFSISRDNAKNTVYLQMNSLKPEDTAVYYCAAKRSFLSTIGNYDYWGQGTQVTVSS | high polyreactivity |
| QVQLVESGGGLVQAGGSLRLSCAASGLTFSVYAMGWYRPAPGKERELVAAISGSGGSTYYADSVKGRFTISRDNAKNTVYLQMNSLKPEDTAVYYCAARYDVHYDGMDYWGQGTQVTLSS | low polyreactivity |
| QVHLVDSGGGLVQAGGSLRLSCAASGRTFYSYAMGWYRQAPGKERELVAAINSGGDTYYADSVKGRFTISRDNAKNSVYLQMNSLKPEDTAVYYCAADYYWEMDSWGQGTQVTVSS | low polyreactivity |
| QVQLVESGGGLVQAGGSLRLSCAASGLIFSTNDMGWYRQAPGKERELVAAITSDVSTYYADSVKGRFTISRDNAKNTVYLQMNSLKPEDTAVYYCAKDDSGYINWRYDYWGQGTQVTVSS | low polyreactivity |
| QDQHVESGGCLVQAGGSLRLSCAASGRTFVRNTMGWYRQAPGKEREFVAAISRSGGNTHYADSVKGRFTISRDNAKNTVYLQMNSLKPEDTAVYYCATRAGYEVYPNKMNYWGQGTQVTVSS | high polyreactivity |
| QVQLVESGGGLVQAGGSLRLSCAASGLIFTSNTMGWYRQAPGKERELVAAISRRGGNTYYADSVKGRFTISRDNAKNTVYLQMNSLKPEDTAVYYCAAVAYALGFASKEDYWGQGTQVTVSS | high polyreactivity |
| QVQLVESVGGLVQAGGSLRLSCAASGRIFLYYAIGWYRQAPGKERELVAVISWSGGSTYYADSVKGRFTISRDNAKNTVYLQMNILKPEDTAVYYCAADVVPTWYGYNYDYWGQGTQVTVSS | high polyreactivity |
| QVQLVESGGGLGQAGGSLSLTCAASGSIFARNAMGWYRQAPGKERELVAAISTGGGSTYYADSVKGRFTISRDNAQNTVYLQMNSLKPEETEVYYCAAVGRSYYGHDYWGQGTQVTVSS | low polyreactivity |
| QVQLVESGGGLVQAGGSLRLICAASGFTYSWYAMGWYRQAPGKERELVAAISWDGDSTYYADSVKGRFTISRDIAKNSVYLQMISLKPEDTAVYYCAADFSYYWVGYDYWGQGTQVTVSS | high polyreactivity |
| QVQLVESGGGLVQAGGSLRLSCAASGFTFTDYAMGWYRRAPGKESELVAAISSGGSTNYADSVKGRFTISRDNAKNTVYLQMNSLKPEDTAVYYCAAYYVYRAPVRYEYWGQGTQVTVSS | high polyreactivity |
| QVQLVESGGGLVQAGGSLRLSCAASGLSFGIYAIGWYRKAPGKERELVAAISRSGGSTYYADSVKGRFTISRDNAKNTVYLQMNSLKPEDTAVYYCAAPYYVGYDYWGQGTQVTVSS | high polyreactivity |
| QVQLVESGGGLVQAGGSLGLSCAASGRIFSRNAMGWYRQATGKEREFVAAISRRGTSTYYADSVKGRFTISRDNAMNTVYLQMNSLNPESTAVYYCNVDQWASQRYSRYDYWGQGTQVTVSW | high polyreactivity |
| QVQLVESGGGLVQAGGSLRLSCDASGGIFFYNTLRCSRQAPGKERELVAAITTNGDSTYYADSVKGRFTISRDNAKYTVYLQMNSLKPVDTAVYYCATPLELFASFSFSHYVYLFDSWGQGTQVNVSS | low polyreactivity |
| QVQLVESGGGLVQAGGSLRLSCAASGRTFYYNAMGWYRQAPGKERELVAAISYRGGSTYYADSVKGRFTISRDNAKNTVYLQMNSLKPEDTAVYYCAKYPHPLKYPGYPSEFDYWGQGTQVTVSS | low polyreactivity |
| QVQLVESGGGLVQAGGSLRLSCAASGSIFTSNAMGWYRQAPGKERELVAAITSDGAITYADSVKGRFTISRDNAKNTVYLQMNSLKPEDTAVYYCATEIEYYVGSVADMGYWGQGTQVTVSS | low polyreactivity |
| QVQLVESGGGLVQAGGSLRLSCAASGSTFTTYAMGWYRQAPGKERELVAAISYGGGSTYYADSVKGRFTISRDNAKNTVYLQMNSLKPEDTAVYFCAAVAWASDGYDSWGQGTQVTVSS | low polyreactivity |
| QVQLVESGGGLVQAGGSLRLSCAASGTFFIYAMGWYRPAPGKERELVDTISTGGSTNYADSVKGRFTISRDNAKNTVYLQMNSLKPEDTAVYSCAAEWLYPHDGGYPRPMDYWGQGTQVTVSS | low polyreactivity |
| QVQLVESGGGLVQAGGSLRLSCAASGFIFRYYAMGWYRQAPGKERELVAAISSGGGTTYADSVKGRFTISRDNAKNTVYLQMNSLKPEDTAVYYCAAVSYYARYTYGYDYWGQGTQVTVSS | high polyreactivity |
| QVQLVESGGGLVQAGGSLRLSCAASGIIFTINAMGWYRQAPGKERELVAAISWGTGTTYYADSVKGRFTISRDNAKNTVYLQINSLKPEDTAVYYCAADGYDTYGYWGQGTQVTVSS | low polyreactivity |
